Biological target: latent myostatin
Assay: BLI
Settings: second pH 7.4

dissociation rate (koff), fold lower at pH 7.4 than at pH 5.0: approximately 20-fold
Substance: SRK-015

Reference: publication PMC6927069
